# Measurements published in patent US20170022269A1 (AbbVie / Abbott, published 2017).
# B1: monoclonal antibody 7E5 (antibody, V domains shown)
# VH: EVKLVESGGGLVQPGGSRKLSCAASGFTFSDYEMVWVRQAPGEGLEWVAYISSGSRTIHYADTVKGRFTISRDNPKNTLFLQMSSLRSEDTAMYYCARTLLRLHFDYWGQGTILTVSS
# VL: DIVMSQSPSSLAVSVGEKVTMSCRSSQSLFYRSNQKNFLAWYQQKPGQSPKLLIYWASTRESGVPDRFTGSGSGTDFTLTISSVKAEDLAVYYCQQYYSYPWTFGGGTKLEIKR
# notes: Mouse monoclonal antibody from hybridoma; also called ML15-7E5.5E12; hybridoma ATCC PTA-7809
# B2: monoclonal antibody 4B7 (antibody, V domains shown)
# VH: EVKLVESGGGLVQPGGSRKLSCAASGFTFSDYEMVWVRQAPGEGLEWVAYISSGSRTIHYADTVKGRFTISRDNPKNTLFLQMSSLRSEDTAMYYCARTLLRLHFDYWGQGTILTVSS
# VL: DIVMSQSPSSLAVSVGEKVTMSCRSSQSLFYRSNQKNFLAWYQQKPGQSPKLLIYWASTRESGVPDRFTGSGSGTDFTLTISSVKAEDLAVYYCQQYYSYPWTFGGGTKLEIKR
# notes: Mouse monoclonal antibody from hybridoma; also called ML15-4B7.3A6; hybridoma ATCC PTA-7242
# B3: monoclonal antibody 10C1 (antibody, V domains shown)
# VH: EVKLVESGGGLVQPGGSRKLSCAASGFTFSDYEMVWVRQAPGKGLEWVAYINSGSGTIHYADTVKGRFTISRDNPKNTLFLQMSSLRSEDTAMYYCARTLLRLHFDYWGQGTILTVSS
# VL: DIVMSQSPSSLAVSVGEKVTMSCKSSQSLFYSRNQKNFLAWYQQKPGQSPKLLIYWASTGESGVPDRFTGSGSGTDFTLTISSVKAEDLAVYYCQQYFSYPWTFGGGTKLEIKR
# notes: Mouse monoclonal antibody from hybridoma; also called ML15-10C1.5C6.3H4; hybridoma ATCC PTA-7810
# B4: monoclonal antibody 5F7 (antibody, V domains shown)
# VH: QVQLKQSGAELVRPGTSVKMSCKASGYTFTTFYIHWVKQRPGQGLEWIGMIGPGSGNTYYNEMFKDKATLTVDTSSSTAYMQLSSLTSEDSAVYFCARAKSARAAWFAYWGQGTLVTVSA
# VL: DVLMTQTPLSLPVSLGDQASISCRSSQSVVQSNGNTYLEWYLQKPGQSPKLLIYKVSNRFSGVPDRFSGSGSGTDFTLKISRVEAEDLGVYYCFQGSHVPPTFGGGTKLEIKR
# notes: Mouse monoclonal antibody from hybridoma, Protein A purified; also called mAb 5F7; ML15-5F7.5B10
# Key:
# [1] = molecular target: T1, Aβ(20-42) globulomer (human); experiment: dot blot densitometry, antibody 0.2 µg/ml; column Aβ(20-42) globulomer (reference)
# T1 construct: also called truncated Aβ(20-42) globulomer; Aβ(20-42) globular oligomer
# T1 peptide: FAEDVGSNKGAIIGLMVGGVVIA
# Protocol: (§1) Dot blot procedure: [0556] 1) 1 μl each of the different Aβ-standards (in their 5 serial dilutions) were dotted onto the nitrocellulose membrane in a distance of approximately 1 cm from each other. [0557] 2) The Aβ-standards dots were allowed to dry on the nitrocellulose membrane on air for at least 10 min at room temperature (RT)(=dot blot) [0558] 3) Blocking: [0559] The dot blot was incubated with 30 ml 5% low fat milk in TBS for 1.5 h at RT. [0560] 4) Washing: [0561] The blocking solution was discarded and the dot blot was incubated under shaking with 20 ml TTBS for 10 min at RT. [0562] 5) Antibody solution I: [0563] The washing buffer was discarded and the dot blot was incubated with antibody solution I for 2 h at RT [0564] 6) Washing: [0565] The antibody solution I was discarded and the dot blot was incubated under shaking with 20 ml TTBS for 10 min at RT. The washing solution was discarded and the dot blot was incubated under shaking with 20 ml TTBS for 10 min at RT. The washing solution was discarded and the dot blot was incubated under shaking with 20 ml TBS for 10 min at RT. [0566] 7) Antibody solution II: [0567] The washing buffer was discarded and the dot blot was incubated with antibody solution II overnight at RT [0568] 8) Washing: [0569] The antibody solution II was discarded and the dot blot was incubated under shaking with 20 ml TTBS for 10 min at RT. The washing solution was discarded and the dot blot was incubated under shaking with 20 ml TTBS for 10 min at RT. The washing solution was discarded and the dot blot was incubated under shaking with 20 ml TBS for 10 min at RT. [0570] 9) Development: [0571] The washing solution was discarded. The dot blot was developed with 10 ml BM Blue POD Substrate for 10 min. The development was stopped by intense washing of the dot blot with H₂O. Quantitative evaluation was done using a densitometric analysis (GS800 densitometer (BioRad) and software package Quantity one, Version […] (BioRad)) of the dot-intensity. […] This threshold value was determined for every dot-blot independently. The calculated value indicates the relation between recognition of Aβ(20-42) globulomer and the respective Aβ form for the antibody given
# [2] = molecular target: T2, Aβ(1-40) monomer (human); experiment: dot blot densitometry, antibody 0.2 µg/ml; column Aβ(1-40) monomer, 0.1% NH4OH
# T2 construct: also called monomeric Aβ(1-40); Aβ(1-40) monomer, 0.1% NH4OH
# Protocol: as §1
# [3] = molecular target: T3, sAPPα (Sigma) (UniProt P05067-4 18-612, limits assumed); experiment: dot blot densitometry, antibody 0.2 µg/ml; column sAPPα
# T3 construct: Bought protein; also called Sigma cat. no; S9564
# Protocol: as §1
# [4] = molecular target: T4, Aβ(12-42) globulomer (human); experiment: dot blot densitometry, antibody 0.2 µg/ml; column Aβ(12-42) globulomer
# T4 construct: also called truncated Aβ(12-42) globulomer
# T4 peptide: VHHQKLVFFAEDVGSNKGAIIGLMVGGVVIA
# Protocol: as §1
# [5] = molecular target: T2, Aβ(1-40) monomer; experiment: dot blot densitometry, antibody 0.2 µg/ml; column Aβ(1-40) monomer, 0.1% NaOH
# Protocol: as §1
# [6] = molecular target: T4, Aβ(12-42) globulomer; experiment: dot blot on nitrocellulose
# Protocol: as §1
# [7] = molecular target: T2, Aβ(1-40) monomer; experiment: dot blot on nitrocellulose
# Protocol: as §1
# [8] = molecular target: T3, sAPPα (Sigma); experiment: dot blot on nitrocellulose
# Protocol: as §1
# [9] = molecular target: T4, Aβ(12-42) globulomer; experiment: dot blot, antibody 0.2 µg/ml
# Protocol: Dot blot procedure: [0556] 1) 1 μl each of the different Aβ-standards (in their 5 serial dilutions) were dotted onto the nitrocellulose membrane in a distance of approximately 1 cm from each other. [0557] 2) The Aβ-standards dots were allowed to dry on the nitrocellulose membrane on air for at least 10 min at room temperature (RT)(=dot blot) [0558] 3) Blocking: [0559] The dot blot was incubated with 30 ml 5% low fat milk in TBS for 1.5 h at RT. [0560] 4) Washing: [0561] The blocking solution was discarded and the dot blot was incubated under shaking with 20 ml TTBS for 10 min at RT. [0562] 5) Antibody solution I: [0563] The washing buffer was discarded and the dot blot was incubated with antibody solution I for 2 h at RT [0564] 6) Washing: [0565] The antibody solution I was discarded and the dot blot was incubated under shaking with 20 ml TTBS for 10 min at RT. The washing solution was discarded and the dot blot was incubated under shaking with 20 ml TTBS for 10 min at RT. […] Quantitative evaluation was done using a densitometric analysis (GS800 densitometer (BioRad) and software package Quantity one, Version […] (BioRad)) of the dot-intensity. […] This threshold value was determined for every dot-blot independently. The calculated value indicates the relation between recognition of Aβ(20-42) globulomer and the respective Aβ form for the antibody given
# T2 sequence (peptide, as listed by the source): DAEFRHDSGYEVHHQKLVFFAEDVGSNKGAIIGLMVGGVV
# T3 sequence (P05067 other isoform, or with tags, fused parts or gaps limits assumed): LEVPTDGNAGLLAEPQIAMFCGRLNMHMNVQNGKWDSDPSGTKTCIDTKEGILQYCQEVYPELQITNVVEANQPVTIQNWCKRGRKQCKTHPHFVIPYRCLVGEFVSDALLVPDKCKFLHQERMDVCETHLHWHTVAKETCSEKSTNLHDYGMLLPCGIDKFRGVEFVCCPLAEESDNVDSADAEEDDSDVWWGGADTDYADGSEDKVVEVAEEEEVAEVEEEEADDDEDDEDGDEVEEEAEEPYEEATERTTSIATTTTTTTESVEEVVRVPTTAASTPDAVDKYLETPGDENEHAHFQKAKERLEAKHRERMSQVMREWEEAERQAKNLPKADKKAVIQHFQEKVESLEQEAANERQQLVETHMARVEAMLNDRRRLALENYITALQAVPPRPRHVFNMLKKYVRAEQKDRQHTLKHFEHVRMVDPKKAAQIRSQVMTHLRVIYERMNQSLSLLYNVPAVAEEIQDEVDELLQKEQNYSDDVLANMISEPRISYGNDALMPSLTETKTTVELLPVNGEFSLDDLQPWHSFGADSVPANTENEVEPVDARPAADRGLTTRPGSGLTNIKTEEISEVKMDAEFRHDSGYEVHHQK
Binder,relation between recognition of Aβ(20-42) globulomer and the respective Aβ form [1],relation between recognition of Aβ(20-42) globulomer and the respective Aβ form [2],relation between recognition of Aβ(20-42) globulomer and the respective Aβ form [3],relation between recognition of Aβ(20-42) globulomer and the respective Aβ form [4],relation between recognition of Aβ(20-42) globulomer and the respective Aβ form [5],binding result [6],binding result [7],binding result [8],binding result [9]
B1,1,> 100000,> 1000,> 100000,> 100000,no binding,no binding,no binding (tested: antibody 0.2 µg/ml; first dot 1 pmol),–
B2,1,–,> 1000,> 100000,> 100000,no binding,no binding,no binding (tested: antibody 0.2 µg/ml; first dot 1 pmol),–
B3,1,> 100000,> 1000,> 100000,> 100000,no binding,no binding,no binding (tested: antibody 0.2 µg/ml; first dot 1 pmol),–
B4,1,> 10000,> 100,–,–,–,no binding,no binding (tested: antibody 0.2 µg/ml; first dot 1 pmol),binds
